Patent publication US20100292083A1 (Ablynx, published 2010)

T1: human IL6R (human, UniProt P08887 20-358, limits assumed)
T1 construct: Antigen of the Biacore experiments; the construct is not described (biotinylated IL6R from Peprotech was used for the selections)
T1 sequence (looked up): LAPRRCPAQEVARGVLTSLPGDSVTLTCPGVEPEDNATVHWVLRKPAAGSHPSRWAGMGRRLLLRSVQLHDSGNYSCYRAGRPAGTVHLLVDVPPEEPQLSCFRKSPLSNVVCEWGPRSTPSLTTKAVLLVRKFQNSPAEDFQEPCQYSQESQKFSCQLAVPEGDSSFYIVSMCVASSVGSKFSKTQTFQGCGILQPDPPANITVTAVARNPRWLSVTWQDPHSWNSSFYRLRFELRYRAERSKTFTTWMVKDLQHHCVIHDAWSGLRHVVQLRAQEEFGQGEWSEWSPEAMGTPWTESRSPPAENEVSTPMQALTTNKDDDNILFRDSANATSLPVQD


Target: T1, human IL6R
Experiment: SPR (Biacore), periplasmic extract

Binder	binding result
32C9PMP2_C9 (VHH, name in Kabat numbering, Humanized 32C9 variant) VHH: EVQLVESGGGLVQAGGSLRLSCAASGFTFDDYDIGWFRQAPGKGREGVSGISSSDGNTYYADSVKGRFTISSDNAKNTLYLQMNSLKAEDTAVYYCAREPPDSSWYLDGSPEFFKYWGQGTLVTVSS	no binding
32C9PMP1_A4 (VHH, name in Kabat numbering, Humanized 32C9 variant) VHH: EVQLVESGGGLVQPGGSLRLSCAASGFTFDDYDIGWFRQAPGKEREWVSGISSSDGNTYYADSVKGRFTISSDNAKNTLYLQMNSLRPEDTAVYYCAREPPDSSWYLDGSPEFFKYWGQGTQVTVSS	no binding
32C9PMP1_D7 (VHH, name in Kabat numbering, Humanized 32C9 variant) VHH: EVQLVESGGGLVQPGGSLRLSCAASGFTFDDYDIGWVRQAPGKEREWVSGISSSDGNTYYADSVKGRFTISRDNAKNTLYLQMNSLKAEDTAVYYCAREPPDSSWYLDGSPEFFKYWGQGTLVTVSS	no binding
32C9PMP2_B7 (VHH, name in Kabat numbering, Humanized 32C9 variant) VHH: EVQLVESGGGLVQAGGSLRLSCAASGFTFSDYDIGWFRQAPGKGREGVSGISSSDGNTYYADSVKGRFTISRDNAKNTLYLQMNSLKAEDTAVYYCAREPPDSSWYLDGSPEFFKYWGQGTLVTVSS	no binding
32C9PMP1_H1 (VHH, name in Kabat numbering, Humanized 32C9 variant) VHH: EVQLVESGGGLVQPGGSLRLSCAASGFTFSDYDIGWVRQAPGKGREGVSGISSSDGNTYYADSVKGRFTISRDNAKNTVYLQMNSLKAEDTAVYYCAREPPDSSWYLDGSPEFFKYWGQGTQVTVSS	no binding
32C9PMP1_E2 (VHH, name in Kabat numbering, Humanized 32C9 variant) VHH: EVQLVESGGGLVQAGGSLRLSCAASGFTFSDYDIGWVRQAPGKGREGVSGISSSDGNTYYADSVKGRFTISRDNAKNTLYLQMNSLKAEDTAVYYCAREPPDSSWYLDGSPEFFKYWGQGTLVTVSS	no binding
32C9PMP1_D5 (VHH, name in Kabat numbering, Humanized 32C9 variant) VHH: EVQLVESGGGLVQPGGSLRLSCAASGFTFDDYDIGWVRQAPGKGREGVSGISSSDGNTYYADSVKGRFTISSDNAKNTLYLQMNSLRPEDTAVYYCAREPPDSSWYLDGSPEFFKYWGQGTLVTVSS	no binding
32C9PMP1_A2 (VHH, name in Kabat numbering, Humanized 32C9 variant) VHH: EVQLVESGGGLVQPGGSLRLSCAASGFTFDDYDIGWVRQAPGKEREWVSGISSSDGNTYYADSVKGRFTISSDNAKNTVYLQMNSLKAEDTAVYYCAREPPDSSWYLDGSPEFFKYWGQGTLVTVSS	no binding
32C9PMP2_C4 (VHH, name in Kabat numbering, Humanized 32C9 variant) VHH: EVQLVESGGGLVQAGGSLRLSCAASGFTFDDYDIGWFRQAPGKEREWVSGISSSDGNTYYADSVKGRFTISSDNAKNTVYLQMNSLKAEDTAVYYCAREPPDSSWYLDGSPEFFKYWGQGTLVTVSS	no binding
32C9PMP1_G9 (VHH, name in Kabat numbering, Humanized 32C9 variant) VHH: EVQLVESGGGLVQPGGSLRLSCAASGFTFDDYDIGWVRQAPGKELEGVSGISSSDGNTYYADSVKGRFTISSDNAKNTVYLQMNSLKAEDTAVYYCAREPPDSSWYLDGSPEFFKYWGQGTLVTVSS	no binding
32C9PMP1_A3 (VHH, name in Kabat numbering, Humanized 32C9 variant) VHH: EVQLVESGGGLVQAGGSLRLSCAASGFTFSDYDIGWVRQAPGKGREGVSGISSSDGNTYYADSVKGRFTISRDNAKNTVYLQMNSLKAEDTAVYYCAREPPDSSWYLDGSPEFFKYWGQGTQVTVSS	no binding
32C9PMP1_F9 (VHH, name in Kabat numbering, Humanized 32C9 variant) VHH: EVQLVESGGGLVQPGGSLRLSCAASGFTFSDYDIGWFRQAPGKEREWVSGISSSDGNTYYADSVKGRFTISRDNAKNTVYLQMNSLKAEDTAVYYCAREPPDSSWYLDGSPEFFKYWGQGTLVTVSS	no binding
32C9PMP1_A11 (VHH, name in Kabat numbering, Humanized 32C9 variant) VHH: EVQLVESGGGLVQPGGSLRLSCAASGFTFSDYDIGWVRQAPGKEREWVSGISSSDGNTYYADSVKGRFTISSDNAKNTVYLQMNSLKAEDTAVYYCAREPPDSSWYLDGSPEFFKYWGQGTLVTVSS	no binding
32C9PMP2_A10 (VHH, name in Kabat numbering, Humanized 32C9 variant) VHH: EVQLVESGGGLVQAGGSLRLSCAASGFTFSDYDIGWVRQAPGKGREGVSGISSSDGNTYYADSVKGRFTISRDNAKNTLYLQMNSLKAEDTAVYYCAREPPDSSWYLDGSPEFFKYWGQGTQVTVSS	no binding
32C9PMP1_G8 (VHH, name in Kabat numbering, Humanized 32C9 variant) VHH: EVQLVESGGGLVQPGGSLRLSCAASGFTFSDYDIGWFRQAPGKGREGVSGISSSDGNTYYADSVKGRFTISSDNAKNTVYLQMNSLKAEDTAVYYCAREPPDSSWYLDGSPEFFKYWGQGTLVTVSS	no binding

Now from value to binder:

binding result	Binder
no binding	32C9PMP1_H6 (VHH, name in Kabat numbering, Humanized 32C9 variant) VHH: EVQLVESGGGLVQPGGSLRLSCAASGFTFDDYDIGWFRQAPGKELEGVSGISSSDGNTYYADSVKGRFTISRDNAKNTLYLQMNSLKAEDTAVYYCAREPPDSSWYLDGSPEFFKYWGQGTQVTVSS
no binding	32C9PMP2_A5 (VHH, name in Kabat numbering, Humanized 32C9 variant) VHH: EVQLVESGGGLVQPGGSLRLSCAASGFTFDDYDIGWVRQAPGKGREGVSGISSSDGNTYYADSVKGRFTISSDNAKNTVYLQMNSLRPEDTAVYYCAREPPDSSWYLDGSPEFFKYWGQGTLVTVSS
no binding	32C9PMP2_C10 (VHH, name in Kabat numbering, Humanized 32C9 variant) VHH: EVQLVESGGGLVQPGGSLRLSCAASGFTFDDYDIGWVRQAPGKGREGVSGISSSDGNTYYADSVKGRFTISSDNAKNTLYLQMNSLKAEDTAVYYCAREPPDSSWYLDGSPEFFKYWGQGTLVTVSS
no binding	32C9PMP1_B4 (VHH, name in Kabat numbering, Humanized 32C9 variant) VHH: EVQLVESGGGLVQPGGSLRLSCAASGFTFSDYDIGWFRQAPGKGREGVSGISSSDGNTYYADSVKGRFTISSDNAKNTLYLQMNSLKAEDTAVYYCAREPPDSSWYLDGSPEFFKYWGQGTQVTVSS
no binding	32C9PMP1_B11 (VHH, name in Kabat numbering, Humanized 32C9 variant) VHH: EVQLVESGGGLVQAGGSLRLSCAASGFTFSDYDIGWFRQAPGKGREGVSGISSSDGNTYYADSVKGRFTISRDNAKNTVYLQMNSLKAEDTAVYYCAREPPDSSWYLDGSPEFFKYWGQGTQVTVSS
no binding	32C9PMP1_G3 (VHH, name in Kabat numbering, Humanized 32C9 variant) VHH: EVQLVESGGGLVQPGGSLRLSCAASGFTFSDYDIGWFRQAPGKGREGVSGISSSDGNTYYADSVKGRFTISRDNAKNTLYLQMNSLRPEDTAVYYCAREPPDSSWYLDGSPEFFKYWGQGTQVTVSS
no binding	32C9PMP1_H8 (VHH, name in Kabat numbering, Humanized 32C9 variant) VHH: EVQLVESGGGLVQAGGSLRLSCAASGFTFDDYDIGWVRQAPGKGREGVSGISSSDGNTYYADSVKGRFTISRDNAKNTLYLQMNSLRPEDTAVYYCAREPPDSSWYLDGSPEFFKYWGQGTLVTVSS
no binding	32C9PMP2_B4 (VHH, name in Kabat numbering, Humanized 32C9 variant) VHH: EVQLVESGGGLVQPGGSLRLSCAASGFTFDDYDIGWFRQAPGKELEGVSGISSSDGNTYYADSVKGRFTISSDNAKNTVYLQMNSLRPEDTAVYYCAREPPDSSWYLDGSPEFFKYWGQGTQVTVSS
